Reference: patent US5886157A, “Expression and purification of human cytochrome P450” (Vanderbilt University, priority 1994, dated 1999)

What was measured:
[1] = molecular target: recombinant human P450 2E1 (construct 2E1 #18) expressed in E. coli (human) (UniProt P05181); conditions: scale: nmol 6-hydroxychlorzoxazone formed min^-1
[2] = molecular target: P450 2C1029 (truncated human cytochrome P450 2C10 expressed in E. coli) (human) (UniProt P11712); conditions: scale: nmol product formed min^-1
[3] = molecular target: P450 2C9/10 purified from human liver microsomes (human) (UniProt P11712); conditions: scale: nmol product formed min^-1
[4] = molecular target: P450 2C1028 (modified human cytochrome P450 2C10 expressed in E. coli) (human) (UniProt P11712); conditions: scale: nmol product formed min^-1
[5] = molecular target: recombinant human P450 1A2 (construct 1024) expressed in E. coli (human) (UniProt P05177)
[6] = substrate: CCOc1ccc2nc3ccc(=O)cc-3oc2c1; experiment: 7-Ethoxyresorufin O-deethylation in P450 1A1 reconstituted system; assay type: biochemical, human; conditions: other: 5 nM P450 1A1, 10 nM NADPH-cytochrome P450 reductase
Procedure: (§1) FIG. 42. Substrate concentration-dependent benzo(a)pyrene 3-hydroxylation (A) and 7-ethoxyresorufin O-deethylation (B) in a P450 1A1 reconstutited system. Benzo(a)pyrene 3-hydroxylation were assayed with 25 nM P450 1A1 and 50 nM NADPH-cytochrome P450 reductase. 7-Ethoxyresorufin O-deethylation were assayed with 5 nM P450 1A1 and 10 nM NADPH-cytochrome P450 reductase.
(§2) 7-Ethoxyresorufin O-dealkylation (Burke and Mayer, Drug Metab. Dispos. 3:245-253 (1975); Burke and Mayer, Chem.-Biol. Interactions 45:243-258 (1983)) and benzo(a)pyrene 3-hydroxylation (Nebert and Gelboin, J. Biol. Chem. 243:6242-6249 (1968); Guengerich in Principles and Methods of Toxicology, Hayes, A. W., Ed., 777-814, Raven Press, New York (1989)) were determined as described elsewhere. Protein concentrations were estimated using a bicinchoninic acid (BCA) method according to the instructions supplied by the manufacturer (Pierce Chemical Co., Rockford, Ill.).
(§3) Catalytic activities. The purified P450 1A1 protein was examined for catalytic activities in a conventional reconstitution system containing rabbit NADPH-P450 reductase and L-α-1,2-dilauroyl-sn-glycero-3-phosphocholine. P450 1A1 catalyzed benzo(a)pyrene 3-hydroxylation and 7-ethoxyresorufin O-deethylation at rates of 1.7 and 6.2 nmol product formed min^-1 (nmol P450)^-1, respectively (FIGS. 41A,B). […]

[7] = substrate: c1ccc2c(c1)cc1ccc3cccc4ccc2c1c34; experiment: Benzo(a)pyrene 3-hydroxylation in P450 1A1 reconstituted system; assay type: biochemical, human; conditions: other: 25 nM P450 1A1, 50 nM NADPH-cytochrome P450 reductase
Procedure: as §1, §2, §3

With “human liver cytochrome b5 (from UniProt P00167)” the chlorzoxazone 6-hydroxylation by purified P450 2E1 (Vmax) [1] was 5.56, the tolbutamide hydroxylation, reconstituted system [2] was 1.77 and the tolbutamide hydroxylation, reconstituted system [3] was 0.51. It also gave a tolbutamide hydroxylation, reconstituted system [4] of 0.57.

For “rabbit liver NADPH-P450 reductase (from UniProt P00389) (enzyme)”, the anaerobic reduction of P450 1A2 (rate of reduction, formation of the Fe2+.CO complex) [5] was greater than 3 min⁻¹.

B1: purified recombinant human cytochrome P450 1A1, N-terminally modified (construct #17, SEQ ID NO: 5), expressed in E. coli (Homo sapiens; L2A) (protein)
chain: AFPISMSATEFLLASVIFCLVFWVIRASRPQVPKGLKNPPGPWGWPLIGHMLTLGKNPHLALSRMSQQYGDVLQIRIGSTPVVVLSGLDTIRQALVRQGDDFKGRPDLYTFTLISNGQSMSFSPDSGPVWAARRRLAQNGLKSFSIASDPASSTSCYLEEHVSKEAEVLISTLQELMAGPGHFNPYRYVVVSVTNVICAICFGRRYDHNHQELLSLVNLNNNFGEVVGSGNPADFIPILRYLPNPSLNAFKDLNEKFYSFMQKMVKEHYKTFEKGHIRDITDSLIEHCQEKQLDENANVQLSDEKIINIVLDLFGAGFDTVTTAISWSLMYLVMNPRVQRKIQEELDTVIGRSRRPRLSDRSHLPYMEAFILETFRHSSFVPFTIPHSTTRDTSLKGFYIPKGRCVFVNQWQINHDQKLWVNPSEFLPERFLTPDGAIDKVLSEKVIIFGMGKRKCIGETIARWEVFLFLAILLQRVEFSVPLGVKVDMTPIYGLTMKHACCEHFQMQLRS
notes: made in house; host or cells: E. coli DH5α, vector pCW
B1 was tested, and the Km [6] was 0.58 µM, the kcat [6] was 8.3 nmol product formed min^-1 (nmol P450)^-1 and the Km [7] was 15 µM. For the same molecule, the kcat [7] was 2.5 nmol product formed min^-1 (nmol P450)^-1.
